Experimental findings from EP1173480B1 (Neurochem (International) Limited, dated 2008) are described below.

Non-standard residues stand in square brackets, D forms with d. No end group written: not given here.

Sequence of Aβ(1-40), naturally occurring all-[L] isomer (P05067 672-711 limits assumed): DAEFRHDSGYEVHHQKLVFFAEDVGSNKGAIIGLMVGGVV

The assay addresses Aβ(1-40), naturally occurring all-[L] isomer (UniProt P05067 672-711). Put plainly: cell-based or functional assay.
Take [dA][dF][dF][dV][dL][dK] [all-[D] Ala-Phe-Phe-Val-Leu-Lys (retro-isomer)]: the “order of potency as inhibitor of Aβ(1-40) fibril formation, thioflavin T fluorescence, peptide tested at 20µM (1 = strongest)” value came to 5 rank and the “order of potency as inhibitor of Aβ(1-40) fibril formation, thioflavin T fluorescence, peptide tested at 80µM (1 = strongest)” value amounted to 1 rank.

As to KKLVFFA [all-[L] Lys-Lys-Leu-Val-Phe-Phe-Ala], the “order of potency as inhibitor of Aβ(1-40) fibril formation, thioflavin T fluorescence, peptide tested at 20µM (1 = strongest)” value worked out at 10 rank and the “order of potency as inhibitor of Aβ(1-40) fibril formation, thioflavin T fluorescence, peptide tested at 80µM (1 = strongest)” value came out at 7 rank.

In the case of AFFVLK (not fully specified) [all-[L] Ala-Phe-Phe-Val-Leu-Lys], the “order of potency as inhibitor of Aβ(1-40) fibril formation, thioflavin T fluorescence, peptide tested at 20µM (1 = strongest)” value came out at 11 rank and the “order of potency as inhibitor of Aβ(1-40) fibril formation, thioflavin T fluorescence, peptide tested at 80µM (1 = strongest)” value was 11 rank.

On to [dK][dL][dV][dF][dF][dA] [all-[D] Lys-Leu-Val-Phe-Phe-Ala], for which the “order of potency as inhibitor of Aβ(1-40) fibril formation, thioflavin T fluorescence, peptide tested at 20µM (1 = strongest)” value came out at 3 rank and the “order of potency as inhibitor of Aβ(1-40) fibril formation, thioflavin T fluorescence, peptide tested at 80µM (1 = strongest)” value came to 1 rank.

Regarding KLVFFA [all-[L] Lys-Leu-Val-Phe-Phe-Ala], the “order of potency as inhibitor of Aβ(1-40) fibril formation, thioflavin T fluorescence, peptide tested at 20µM (1 = strongest)” value amounted to 8 rank and the “order of potency as inhibitor of Aβ(1-40) fibril formation, thioflavin T fluorescence, peptide tested at 80µM (1 = strongest)” value stood at 8 rank.

Take [dK][dL][dV][dF][dF] [all-[D] Lys-Leu-Val-Phe-Phe]: the “order of potency as inhibitor of Aβ(1-40) fibril formation, thioflavin T fluorescence, peptide tested at 20µM (1 = strongest)” value worked out at 9 rank and the “order of potency as inhibitor of Aβ(1-40) fibril formation, thioflavin T fluorescence, peptide tested at 80µM (1 = strongest)” value was 10 rank.

For [dK][dL][dV][dF] [all-[D] Lys-Leu-Val-Phe], the “order of potency as inhibitor of Aβ(1-40) fibril formation, thioflavin T fluorescence, peptide tested at 20µM (1 = strongest)” value amounted to 6 rank and the “order of potency as inhibitor of Aβ(1-40) fibril formation, thioflavin T fluorescence, peptide tested at 80µM (1 = strongest)” value is 9 rank.

In the case of [dK][dA][dV][dF][dF][dA] [all-[D] Lys-Ala-Val-Phe-Phe-Ala], the “order of potency as inhibitor of Aβ(1-40) fibril formation, thioflavin T fluorescence, peptide tested at 20µM (1 = strongest)” value stood at 7 rank and the “order of potency as inhibitor of Aβ(1-40) fibril formation, thioflavin T fluorescence, peptide tested at 80µM (1 = strongest)” value stood at 6 rank.

[dK][dF][dV][dF][dF][dA] [all-[D] Lys-Phe-Val-Phe-Phe-Ala]: the “order of potency as inhibitor of Aβ(1-40) fibril formation, thioflavin T fluorescence, peptide tested at 20µM (1 = strongest)” value stood at 4 rank and the “order of potency as inhibitor of Aβ(1-40) fibril formation, thioflavin T fluorescence, peptide tested at 80µM (1 = strongest)” value is 1 rank.

Take [dK][dK][dL][dV][dF][dF][dA] [all-[D] Lys-Lys-Leu-Val-Phe-Phe-Ala]: the “order of potency as inhibitor of Aβ(1-40) fibril formation, thioflavin T fluorescence, peptide tested at 20µM (1 = strongest)” value worked out at 2 rank and the “order of potency as inhibitor of Aβ(1-40) fibril formation, thioflavin T fluorescence, peptide tested at 80µM (1 = strongest)” value was 1 rank.

Take [dK][dI][dV][dF][dF][dA] [all-[D] Lys-Ile-Val-Phe-Phe-Ala]: the “order of potency as inhibitor of Aβ(1-40) fibril formation, thioflavin T fluorescence, peptide tested at 20µM (1 = strongest)” value turned out to be 1 rank and the “order of potency as inhibitor of Aβ(1-40) fibril formation, thioflavin T fluorescence, peptide tested at 80µM (1 = strongest)” value came out at 5 rank.
